{"source": "the RNAGym collection of RNA variant scans (doi:10.1093/molbev/msab373)", "parents": {"B1": {"name": "Azoarcus group I ribozyme (parent)", "chain": "GUGCCUUGCGCCGGGAAACCACGCAAGGGAUGGUGUCAAAUUCGGCGAAACCUAAGCGCCCGCCCGGGCGUAUGGCAACGCCGAGCCAAGCUUCGGCGCCUGCGCCGAUGAAGGUGUAGAGACUAGACGGCACCCACCUAAGGCAAACGCUAUGGUGAAGGCAUAGUCCAGGGAGUGGCGAAAGUCACACAAACCGG"}}, "data": [{"variants_of": "B1", "test": "reverse-splicing fitness (ratio to wild type); higher = more active; in vitro selection; Mg2+ level not given", "how_it_was_run": "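An in vitro group I ribozyme library with randomized positions was T7-transcribed and gel-purified. In triplicate, 10 pmol RNA in EPPS pH 7.5 was reacted with 50 pmoles of a 30-nt RNA substrate for 1 h at 37 °C across several added MgCl2 levels (1–48 mM), then stopped with EDTA. Products were reverse transcribed from a substrate-complementary primer, PCR-amplified and sequenced (HiSeq 4000). Fitness is a variant's read proportion after selection over that before, normalised to wild type.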", "values": [{"variant": "C82G A111G A120G C169G", "reverse-splicing fitness": 0.0219}, {"variant": "C82G A111G A120G C169A", "reverse-splicing fitness": 0.0124}, {"variant": "C82G A111G A120G C150G C169U U176A", "reverse-splicing fitness": 0.0119}, {"variant": "C82G A111G A120G C150G C169U U176C", "reverse-splicing fitness": 0.0158}, {"variant": "C82G A111G A120G C150G C169U U176G", "reverse-splicing fitness": 0.00715}, {"variant": "C82G A111G A120G C150G C169A", "reverse-splicing fitness": 0.00983}, {"variant": "C82G A111G A120G C150G C169G", "reverse-splicing fitness": 0.00788}, {"variant": "C82G A111G A120G C150G C169U", "reverse-splicing fitness": 0.0094}, {"variant": "C82G A111G A120G C169G U176A", "reverse-splicing fitness": 0.0194}, {"variant": "C82G A111G A120G A145U C150U C169G", "reverse-splicing fitness": 0.0148}, {"variant": "C82G A111G A120G A145U C150U C169U", "reverse-splicing fitness": 0.0114}, {"variant": "C82G A111G A120G A145U C150U C169A", "reverse-splicing fitness": 0.0123}, {"variant": "C82G A111G A120G A145G C150U C169G", "reverse-splicing fitness": 0.0181}, {"variant": "C82G A111G A120G A145G C150U C169A", "reverse-splicing fitness": 0.0144}, {"variant": "C82G A111G A120G A145G C150U C169U", "reverse-splicing fitness": 0.0141}, {"variant": "C82G A111G A120G A145G C150G C169U U176A", "reverse-splicing fitness": 0.0127}, {"variant": "C82G A111G A120G A145G C150G C169U U176C", "reverse-splicing fitness": 0.0129}, {"variant": "C82G A111G A120G A145G C150G C169U U176G", "reverse-splicing fitness": 0.00812}, {"variant": "C82G A111G A120G A145G C169G", "reverse-splicing fitness": 0.0197}, {"variant": "C82G A111G A120G A145G C169A", "reverse-splicing fitness": 0.0141}, {"variant": "C82G A111G A120G A145G C169U", "reverse-splicing fitness": 0.0134}, {"variant": "C82G A111G A120G C150U", "reverse-splicing fitness": 0.0156}, {"variant": "C82G A111G A120G C150A", "reverse-splicing fitness": 0.0101}, {"variant": "C82G A111G A120G C150G", "reverse-splicing fitness": 0.00784}, {"variant": "C82G A111G A120G A145U C150G C169G U176G", "reverse-splicing fitness": 0.00457}, {"variant": "C82G A111G A120G A145U C150G C169G U176C", "reverse-splicing fitness": 0.00676}, {"variant": "C82G A111G A120G A145U C150G C169G U176A", "reverse-splicing fitness": 0.00751}, {"variant": "C82G A111G A120G A145U C169A U176G", "reverse-splicing fitness": 0.00446}, {"variant": "C82G A111G A120G A145U C169A U176A", "reverse-splicing fitness": 0.0151}, {"variant": "C82G A111G A120G A145U C169A U176C", "reverse-splicing fitness": 0.0152}, {"variant": "C82G A111G A120G A145U", "reverse-splicing fitness": 0.0198}, {"variant": "C82G A111G A120G A145U C150G U176G", "reverse-splicing fitness": 0.00436}, {"variant": "C82G A111G A120G A145U C150G U176C", "reverse-splicing fitness": 0.0158}, {"variant": "C82G A111G A120G A145U C150G U176A", "reverse-splicing fitness": 0.00801}, {"variant": "C82G A111G A120G A145U C150U U176C", "reverse-splicing fitness": 0.0212}, {"variant": "C82G A111G A120G A145U C150U U176A", "reverse-splicing fitness": 0.0125}, {"variant": "C82G A111G A120G A145U C150U U176G", "reverse-splicing fitness": 0.00626}, {"variant": "C82G A111G A120G A145G C150U C169A U176G", "reverse-splicing fitness": 0.00616}, {"variant": "C82G A111G A120G A145G C150U C169A U176C", "reverse-splicing fitness": 0.0177}, {"variant": "C82G A111G A120G A145G C150U C169A U176A", "reverse-splicing fitness": 0.0163}, {"variant": "C82G A111G A120G C150U C169U U176G", "reverse-splicing fitness": 0.00864}, {"variant": "C82G A111G A120G C150U C169U U176A", "reverse-splicing fitness": 0.0189}, {"variant": "C82G A111G A120G C150U C169U U176C", "reverse-splicing fitness": 0.0174}, {"variant": "C82G A111G A120G C150A C169U U176G", "reverse-splicing fitness": 0.00912}, {"variant": "C82G A111G A120G C150A C169U U176C", "reverse-splicing fitness": 0.0176}, {"variant": "C82G A111G A120G C150A C169U U176A", "reverse-splicing fitness": 0.021}, {"variant": "C82G A111G A120G C150G C169A U176A", "reverse-splicing fitness": 0.0118}, {"variant": "C82G A111G A120G C150G C169A U176C", "reverse-splicing fitness": 0.0135}, {"variant": "C82G A111G A120G C150G C169A U176G", "reverse-splicing fitness": 0.00685}, {"variant": "C82G A111G A120G A145G C169G U176A", "reverse-splicing fitness": 0.0184}, {"variant": "C82G A111G A120G A145G C169G U176C", "reverse-splicing fitness": 0.0248}, {"variant": "C82G A111G A120G A145G C169G U176G", "reverse-splicing fitness": 0.0045}, {"variant": "C82G A111G A120G A145U C150A U176G", "reverse-splicing fitness": 0.00563}, {"variant": "C82G A111G A120G A145U C150A U176C", "reverse-splicing fitness": 0.0191}, {"variant": "C82G A111G A120G A145U C150A U176A", "reverse-splicing fitness": 0.014}, {"variant": "C82G A111G A120G A145U C150A C169U U176C", "reverse-splicing fitness": 0.0177}, {"variant": "C82G A111G A120G A145U C150A C169U U176G", "reverse-splicing fitness": 0.00582}, {"variant": "C82G A111G A120G A145U C150A C169U U176A", "reverse-splicing fitness": 0.0196}, {"variant": "C82G A111G A120G A145U U176G", "reverse-splicing fitness": 0.00543}, {"variant": "C82G A111G A120G A145U U176C", "reverse-splicing fitness": 0.0242}, {"variant": "C82G A111G A120G A145U U176A", "reverse-splicing fitness": 0.0167}, {"variant": "C82G A111G A120G A145G C150U C169U U176C", "reverse-splicing fitness": 0.0177}, {"variant": "C82G A111G A120G A145G C150U C169U U176G", "reverse-splicing fitness": 0.00668}, {"variant": "C82G A111G A120G A145G C150U C169U U176A", "reverse-splicing fitness": 0.0177}, {"variant": "C82G A111G A120G C150U C169G U176A", "reverse-splicing fitness": 0.0182}, {"variant": "C82G A111G A120G C150U C169G U176G", "reverse-splicing fitness": 0.00549}, {"variant": "C82G A111G A120G C150U C169G U176C", "reverse-splicing fitness": 0.0206}, {"variant": "C82G A111G A120G A145U C169G U176G", "reverse-splicing fitness": 0.0044}, {"variant": "C82G A111G A120G A145U C169G U176A", "reverse-splicing fitness": 0.0149}, {"variant": "C82G A111G A120G A145U C169G U176C", "reverse-splicing fitness": 0.0187}, {"variant": "C82G A111G A120G A145U C150G C169U U176G", "reverse-splicing fitness": 0.00523}, {"variant": "C82G A111G A120G A145U C150G C169U U176C", "reverse-splicing fitness": 0.0149}, {"variant": "C82G A111G A120G A145U C150G C169U U176A", "reverse-splicing fitness": 0.0117}, {"variant": "C82G A111G A120G A145G C150G", "reverse-splicing fitness": 0.00815}, {"variant": "C82G A111G A120G A145G C150U", "reverse-splicing fitness": 0.0167}, {"variant": "C82G A111G A120G C150G C169G U176A", "reverse-splicing fitness": 0.00837}, {"variant": "C82G A111G A120G C150G C169G U176C", "reverse-splicing fitness": 0.00628}, {"variant": "C82G A111G A120G C150G C169G U176G", "reverse-splicing fitness": 0.0053}, {"variant": "C82G A111G A120G A145U C150A", "reverse-splicing fitness": 0.00906}, {"variant": "C82G A111G A120G A145U C150U", "reverse-splicing fitness": 0.0155}, {"variant": "C82G A111G A120G A145U C150G", "reverse-splicing fitness": 0.00774}, {"variant": "C82G A111G A120G C150U U176C", "reverse-splicing fitness": 0.0211}, {"variant": "C82G A111G A120G C150U U176A", "reverse-splicing fitness": 0.012}, {"variant": "C82G A111G A120G C150U U176G", "reverse-splicing fitness": 0.00986}]}]}
